Columns and labels:
PDLP5pro:GUS = assay: Hormone treatment of PDLP5pro:GUS seedlings, GUS staining of roots; format: in vivo, Arabidopsis thaliana; settings: 7-day-old seedlings, 9 hours; NAA 100 nM, SA 100 μM, JA 50 μM, ABA 10 μM, 6-BAP 1 μM
From the text: (A) GUS staining of napthalene acetic acid (NAA)-treated roots. Images are tiled and manually aligned. Scale bars, 50 μm. (B) Model for the possible role of PDLP5 during lateral root (LR) emergence. In the wild type (WT) plant, auxin-triggered PDLP5 limits excess diffusion of auxin through PD. This helps regulate the expression timing of genes encoding LAX3 and CWR enzymes in the cortex that positively influence LR emergence. In the plant having a severe knock-down in PDLP5 (pdlp5-1), auxin can diffuse through PD into cortical (and later, epidermal) cells earlier than it should. En, endodermis; Co, cortex; Ep, epidermis This expedites the expression of emergence-promoting genes, accelerating LR emergence.
Concentrations: salicylic acid (SA), 100 μM; JA, 50 μM; ABA, 10 μM; 6-BAP, 1 μM. n=10 per treatment for each line. Representative images are shown. Scale bar, 100 μm.
(§1) To further test that PDLP5pro responds to auxin, we treated 7-day-old PDLP5pro:GUS seedlings with the auxin analog 1-napthalene acetic acid (NAA). […] However, whereas DR5:GUS staining was intensified at the root meristem, exogenous auxin-induced PDLP5pro:GUS expression was again completely excluded from the root tip (FIG. 24).
GUS solution (100 mM sodium phosphate buffer, pH 7.0, 10 mM EDTA, 0.5 mM each potassium ferrocyanide and potassium ferricyanide, 1.24 mM X-Gluc, and 0.1% Triton X-100) was vacuum-infiltrated into plant tissue for five minutes, then removed from vacuum and incubated in 37° C. for 3 to 12 hrs, followed by a series of ethanol washes. Stained tissues were imaged using Zeiss Axioskop 2 microscope. LRP were quantified by counting both the emerged LR and unemerged LR, as determined by DRS::GUS staining of the primordia, under a dissecting microscope (1.2× magnification). LRP stages were determined by examining ethanol-cleared, GUS-stained tissue using 40× water lens.

PDLP5 = assay: RT-PCR of PDLP5 transcript in roots after hormone treatment; format: in vivo, Arabidopsis thaliana; settings: nine-day-old seedlings, 4 hours; 100 μM SA, 5 μM NAA
Description: Relative band intensity was quantified with Image-J and standardized against ubiquitin. Concentrations: 100 μM salicylic acid (SA), 5 μM napthalene acetic acid (NAA). Three biological and two technical repeats were performed.
as §1

[1] = system: Nicotiana benthamiana leaves; assay: Transient expression via Agrobacteria-infiltration, extent of viral movement; format: in vivo; settings: transient expression in Nicotiana benthamiana leaves
Description: (a) Schematics of PDLP5-m5, PDLP5-C, and PDLP5-2C mutants as created by overlapping PCR. (b) Transient expression of mutants in Nicotiana benthamiana leaves.
We also created mutants altering just two cysteines (“CC”, residues 288 and 289 of the C-terminal tail region) or a single cysteine (“C”, residue 298 of the C-terminal tail region) residues to A1a. The phenotypes of these partial mutants, as well as the PDLP5-OX, pldp5-1 and PDLP5-m5, were tested in transient expression in Nicotiana benthamiana leaves via Agrobacteria-infiltration, targeting the extent of viral movement for comparison.

Arabidopsis thaliana [2] = assay: Root length and secondary root growth of PDLP5-m5 plants; format: in vivo; settings: compared to wild-type plants
From the text: The sequence of the PCR product was confirmed followed by transformation of Top10 E. coli competent cells. After sequence confirmation, the PDLP5-m5 sequence was transferred from the entry clone pEN-PDLP5-m5 into a binary vector (pGWB) including the constitutive 35S promoter by a Gateway reaction; more particularly, the sequence was cloned into an expression vector under the control of a constitutive 35S promoter to create a pGWB-35S:PDLP5-m5 clone. Agrobacteria were transformed with the pGWB-35S:PDLP5-m5 clone. More particularly, pGWB was introduced into Agrobacteria strain GV3101, and the transformed Agrobacteria were used to transform 4-week-old Arabidopsis thaliana Col-0 plants using floral dipping to produce transgenic plants expressing PDLP5-m5. Transgenic Arabidopsis plants expressing the PDLP5-m5 mutant (pro35S:PDLP5-m5) were made in Col-0 WT and pldp5-1 (severe knockdown) backgrounds.

Arabidopsis thaliana [3] = assay: Drought test: 2 weeks water withdrawal, then rewatering; format: in vivo
Description: All plant lines were grown for 2 weeks with water prior to the 2 week water withdrawal. (a) Plants having a severe knock down of PDLP5 (pdlp5-1) and PDLP5-m5 plants bolt faster than plants overexpressing PDLP5 (OX) and wild type (WT) plants. (b) Plants overexpressing PDLP5 (OX) revive 3 days post rewatering (DPR). (c) Plants overexpressing PDLP5 (OX) fully recover and 10 days post rewatering (DPR); wild type (WT) plants are dead, and PDLP5-m5 plants continue to survive.
(a) Plants overexpressing PDLP5 (OX), wild type (WT) plants, plants having a severe knock down of PDLP5 (pdlp5-1), and three different PDLP5-m5 plants (T3-4-2, T2-6, and T2-26) which were all grown a different number of days as required to reach same rosette size before water withdrawal. Plants having the same rosette size are referred to as “same day bolting samples.” (b) Same day bolting samples of plants overexpressing PDLP5 (OX), wild type (WT) plants, plants having a severe knock down of PDLP5 (pdlp5-1), and three different PDLP5-m5 plants (T3-4-2, T2-6, and T2-26) at the end of a 2 week water withdrawal. (c) Same day bolting samples of plants overexpressing PDLP5 (OX) and two different PDLP5-m5 plants (T3-4-2 and T2-26) recover fully 3 days post rewatering.
Transgenic T1 plants were selected on basta+plates and homozygous T2 lines were identified by segregation test on T3 plants. For the drought test, homozygous lines were grown in soil for the 2 weeks with watering followed by 2 weeks of water withdrawal. Tolerance to drought stress of the PDLP5-m5 was assessed by the plant growth or death upon resuming watering.
PDLP5-m5 plants were evaluated by exposing them to drought conditions. PDLP-m5 plants were grown under normal conditions with water, water was withdrawn for 2 weeks, and rewatering was commenced. Plants having a severe knock down of PDLP5 (pdlp5-1) and PDLP5-m5 plants bolt faster than plants overexpressing PDLP5 and wild type plants (FIG. 13A). […] The early bolting of the PDLP5-m5 plants appeared to affect plant revival. Therefore, the experiment was repeated using same day bolting samples. Briefly, plants having the same rosette size were used, regardless of the number of days required to achieve that rosette size (FIG. 14A).

Arabidopsis thaliana [4] = assay: Exposure to cold conditions (chilling); format: in vivo; settings: relative to wild type plants and plants overexpressing PDLP5; 7 weeks at 5° C.
Description: Plants were grown to 2 weeks post germination at 20° C. followed by 7 weeks of culture at 5° C. with 16/8 hours light/darkness.

Arabidopsis thaliana [5] = assay: Vegetative growth, flowering and seed yield of plants; format: in vivo
Description: Wild type (WT) plants, plants overexpressing […]), and plants with a severe knock down of […] used as comparisons. (a) Whole plants at 10, 14, and 18 days post germination (dpg). Plants were grown at 22-20° C. with 50% humidity and with 16/8 hours light/darkness. (b) Leaves at 3 weeks post germination. Plants were grown at 24-22° C. with 70% humidity and with 16/8 hours light/darkness. […] Wild type (WT) plants, plants overexpressing PDLP5 (OX), and plants with a severe knock down of PDLP5 (KO) were used as comparisons. […] Seeds were germinated on plates, were transferred to soil after 1 week, and plants were grown at 22-20° C. with 16/8 hours light/darkness. […] Wild type (WT) plants and plants overexpressing […]) were used as comparisons. Plants were grown at 24-22° C. with 70% humidity and with 16/8 hours light/darkness. […] The sequence of the PCR product was confirmed followed by transformation of Top10 E. coli competent cells. […] Agrobacteria were transformed with the […]5 clone.

cytokinin
PDLP5pro:GUS expression in roots (PDLP5pro:GUS): did not have any effect

CC1=CC(=O)CC(C)(C)C1(O)/C=C/C(C)=C\C(=O)O (centres unmarked) [ABA]
PDLP5pro:GUS expression in roots (PDLP5pro:GUS): did not have any effect

O=C(O)Cc1cccc2ccccc12 [NAA, 1-napthalene acetic acid]
PDLP5pro:GUS expression in roots (PDLP5pro:GUS): occurred in the cells above the ectopically induced LRP
PDLP5 transcript level in the roots (RT-PCR) (PDLP5): Induction of PDLP5 at the transcript level

O=C(O)c1ccccc1O [SA, salicylic acid]
PDLP5pro:GUS expression in roots (PDLP5pro:GUS): induces PDLP5pro:GUS expression in roots
PDLP5 transcript level in the roots (RT-PCR) (PDLP5): Induction of PDLP5 at the transcript level

CC/C=C\C[C@H]1C(=O)CC[C@@H]1CC(=O)O [JA]
PDLP5pro:GUS expression in roots (PDLP5pro:GUS): did not have any effect

B1: PDLP5-CC: PDLP5 mutant altering two cysteines (residues 288 and 289 of the C-terminal tail) to Ala (protein, UniProt Q8GUJ2 26-299, looked up, variant C288A C289A)
Plasmodesmata-located protein …: SPTDNYIYAVCSPAKFSPSSGYETNLNSLLSSFVTSTAQTRYANFTVPTGKPEPTVTVYGIYQCRGDLDPTACSTCVSSAVAQVGALCSNSYSGFLQMENCLIRYDNKSFLGVQDKTLILNKCGQPMEFNDQDALTKASDVIGSLGTGDGSYRTGGNGNVQGVAQCSGDLSTSQCQDCLSDAIGRLKSDCGMAQGGYVYLSKCYARFSVGGSHARQTPGPNFGHEGEKGNKDDNGVGKTLAIIIGIVTLIILLVVFLAFVGKAARKLQDEKWCK
extent of viral movement [1]: did not show PDLP5-m5 effect

B2: PDLP5-C: PDLP5 mutant altering a single cysteine (residue 298 of the C-terminal tail) to Ala (protein, UniProt Q8GUJ2 26-299, looked up, variant C298A)
Plasmodesmata-located protein …: SPTDNYIYAVCSPAKFSPSSGYETNLNSLLSSFVTSTAQTRYANFTVPTGKPEPTVTVYGIYQCRGDLDPTACSTCVSSAVAQVGALCSNSYSGFLQMENCLIRYDNKSFLGVQDKTLILNKCGQPMEFNDQDALTKASDVIGSLGTGDGSYRTGGNGNVQGVAQCSGDLSTSQCQDCLSDAIGRLKSDCGMAQGGYVYLSKCYARFSVGGSHARQTPGPNFGHEGEKGNKDDNGVGKTLAIIIGIVTLIILLVVFLAFVGKCCRKLQDEKWAK
extent of viral movement [1]: did not show PDLP5-m5 effect

B3: PDLP5-m5: PDLP5 mutant (SEQ ID NO:6) with three Cysteine→Alanine mutations at 288, 289, 298; expressed in transgenic plants under 35S promoter (protein)
chain: MIKTKTTSLLCFLLTAVILMNPSSSSPTDNYIYAVCSPAKFSPSSGYETNLNSLLSSFVTSTAQTRYANFTVPTGKPEPTVTVYGIYQCRGDLDPTACSTCVSSAVAQVGALCSNSYSGFLQMENCLIRYDNKSFLGVQDKTLILNKCGQPMEFNDQDALTKASDVIGSLGTGDGSYRTGGNGNVQGVAQCSGDLSTSQCQDCLSDAIGRLKSDCGMAQGGYVYLSKCYARFSVGGSHARQTPGPNFGHEGEKGNKDDNGVGKTLAIIIGIVTLIILLVVFLAFVGKAARKLQDEKWAK
modifications: modified PDLP5 protein
notes: expressed in transgenic plants under 35S promoter
total secondary root growth (Arabidopsis thaliana [2]): increase in total secondary root growth
increase in root length (Arabidopsis thaliana [2]; 10 days post germination): 30-40%
outcome upon rewatering (Arabidopsis thaliana [3]; rewatering after 2 weeks water withdrawal): continued to grow upon rewatering
bolting (Arabidopsis thaliana [3]; versus plants overexpressing PDLP5 and wild type plants): bolt faster
response to water withdrawal (Arabidopsis thaliana [3]; water withdrawn for 2 weeks): resistant to water withdrawal
resistance to cold conditions (Arabidopsis thaliana [4]): improved resistance
extent of viral movement [1]: more extensive viral movement
rosette diameter (Arabidopsis thaliana [5]; 22-20° C., 16/8 hours light/darkness): relative rosette diameter is maintained
seed yield (Arabidopsis thaliana [5]; compared to wild type and pdlp5-1): normal to better seed yield
flowering (Arabidopsis thaliana [5]; compared with WT and PDLP5-OX): early flowering
vegetative growth (Arabidopsis thaliana [5]; compared with WT, PDLP5-OX, pdlp5-1): fast vegetative growth
